Values quoted from earlier work as cited in article PMC12869367.

Molecular target: DMBT1S8L (Homo sapiens) (UniProt Q9UGM3)
Sequence of UniProt Q9UGM3 (Q9UGM3 20-2413): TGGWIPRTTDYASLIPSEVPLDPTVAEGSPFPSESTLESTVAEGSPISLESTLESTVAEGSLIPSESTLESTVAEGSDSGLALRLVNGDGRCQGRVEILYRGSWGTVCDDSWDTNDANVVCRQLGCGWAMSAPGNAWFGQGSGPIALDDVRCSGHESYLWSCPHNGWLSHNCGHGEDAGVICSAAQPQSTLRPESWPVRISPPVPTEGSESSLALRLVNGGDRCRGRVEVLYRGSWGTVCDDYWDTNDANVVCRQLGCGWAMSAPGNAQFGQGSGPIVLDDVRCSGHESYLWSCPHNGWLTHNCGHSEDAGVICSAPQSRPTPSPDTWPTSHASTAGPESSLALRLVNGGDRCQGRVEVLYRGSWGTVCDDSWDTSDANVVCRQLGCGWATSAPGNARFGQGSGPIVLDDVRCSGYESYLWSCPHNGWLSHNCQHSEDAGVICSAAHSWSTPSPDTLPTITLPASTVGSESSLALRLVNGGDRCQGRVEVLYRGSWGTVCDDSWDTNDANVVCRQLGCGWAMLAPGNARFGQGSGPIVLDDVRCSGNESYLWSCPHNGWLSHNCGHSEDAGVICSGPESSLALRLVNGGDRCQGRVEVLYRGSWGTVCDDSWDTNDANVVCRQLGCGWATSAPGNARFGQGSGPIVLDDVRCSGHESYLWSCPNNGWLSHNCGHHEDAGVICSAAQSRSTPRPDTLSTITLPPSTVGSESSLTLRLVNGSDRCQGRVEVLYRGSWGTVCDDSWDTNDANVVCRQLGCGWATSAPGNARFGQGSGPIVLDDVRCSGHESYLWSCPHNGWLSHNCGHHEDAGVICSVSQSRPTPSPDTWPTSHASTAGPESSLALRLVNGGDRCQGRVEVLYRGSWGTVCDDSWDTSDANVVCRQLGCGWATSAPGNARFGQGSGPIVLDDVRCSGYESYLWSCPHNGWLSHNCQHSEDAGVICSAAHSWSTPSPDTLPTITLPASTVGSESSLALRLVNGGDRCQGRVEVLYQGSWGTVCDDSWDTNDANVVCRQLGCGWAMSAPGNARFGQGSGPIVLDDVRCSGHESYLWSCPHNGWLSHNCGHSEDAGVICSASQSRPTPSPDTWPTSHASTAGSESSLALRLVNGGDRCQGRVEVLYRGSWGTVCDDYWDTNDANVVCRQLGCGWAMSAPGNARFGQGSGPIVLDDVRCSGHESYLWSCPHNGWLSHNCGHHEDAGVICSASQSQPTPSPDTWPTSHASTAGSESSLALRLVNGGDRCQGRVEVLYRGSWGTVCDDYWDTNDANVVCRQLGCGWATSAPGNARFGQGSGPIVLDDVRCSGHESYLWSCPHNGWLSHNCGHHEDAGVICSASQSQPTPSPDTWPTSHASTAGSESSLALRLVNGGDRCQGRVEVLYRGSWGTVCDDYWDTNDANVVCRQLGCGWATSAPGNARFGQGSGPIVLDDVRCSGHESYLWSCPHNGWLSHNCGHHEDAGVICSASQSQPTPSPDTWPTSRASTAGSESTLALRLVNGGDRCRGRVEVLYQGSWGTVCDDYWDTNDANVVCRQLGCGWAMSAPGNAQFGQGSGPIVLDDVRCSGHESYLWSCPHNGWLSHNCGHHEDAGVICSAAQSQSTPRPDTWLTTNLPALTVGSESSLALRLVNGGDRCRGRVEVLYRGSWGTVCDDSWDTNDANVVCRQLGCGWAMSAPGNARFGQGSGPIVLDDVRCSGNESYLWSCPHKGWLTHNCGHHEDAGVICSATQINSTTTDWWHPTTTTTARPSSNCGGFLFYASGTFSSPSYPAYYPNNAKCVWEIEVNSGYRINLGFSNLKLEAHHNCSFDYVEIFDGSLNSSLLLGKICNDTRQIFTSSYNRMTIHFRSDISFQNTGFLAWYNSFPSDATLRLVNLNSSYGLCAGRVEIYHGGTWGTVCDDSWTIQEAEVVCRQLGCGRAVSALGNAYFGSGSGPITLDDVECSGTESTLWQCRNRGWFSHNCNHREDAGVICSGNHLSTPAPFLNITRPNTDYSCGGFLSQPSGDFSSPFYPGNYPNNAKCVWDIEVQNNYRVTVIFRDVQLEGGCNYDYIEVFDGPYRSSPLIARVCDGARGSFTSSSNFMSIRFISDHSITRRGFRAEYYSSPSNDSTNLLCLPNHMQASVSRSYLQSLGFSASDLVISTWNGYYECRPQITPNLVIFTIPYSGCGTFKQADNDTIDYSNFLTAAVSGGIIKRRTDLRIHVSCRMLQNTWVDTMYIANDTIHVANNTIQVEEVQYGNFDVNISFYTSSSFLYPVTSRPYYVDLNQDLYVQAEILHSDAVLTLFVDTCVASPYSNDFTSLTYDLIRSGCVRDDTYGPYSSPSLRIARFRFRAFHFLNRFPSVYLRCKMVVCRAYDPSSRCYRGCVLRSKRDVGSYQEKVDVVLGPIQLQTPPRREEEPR

For Siglec-8-Fc (from UniProt Q9NYZ4), the Kd is listed as 0.06 nM.
